Entries after “also recorded” stand apart in the source; their conditions may differ. [ ]: non-standard residue; d: D form.
How the values were obtained:
human CRP = target: T1, human CRP (Homo sapiens, UniProt P02741); experiment: Block of the inhibitory effect of human CRP on leptin-stimulated STAT3 phosphorylation in HEK-293 OB-Rb cells; format: cell-based; conditions: for restoration of leptin-stimulated STAT3 activation in the presence of human CRP: hexamer at concentrations as high as 0.8 μM, human CRP 8 μg/ml, human leptin 2 nM, 1-hour pre-incubation
T1 construct: purchased CHEMICON International
T1 sequence (P02741 19-224): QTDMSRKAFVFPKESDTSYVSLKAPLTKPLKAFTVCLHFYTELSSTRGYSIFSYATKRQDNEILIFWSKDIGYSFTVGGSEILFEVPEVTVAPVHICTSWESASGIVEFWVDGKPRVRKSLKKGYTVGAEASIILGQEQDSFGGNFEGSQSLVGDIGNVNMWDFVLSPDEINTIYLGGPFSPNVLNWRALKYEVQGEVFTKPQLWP
Method: In the in vitro experiment, Peptide-E was pre-incubated with human CRP for 30 minutes before being mixed with human leptin for an additional 45 minutes. The resultant mixture was then added to the HEK-293 cells overexpressing the long form leptin receptors, OB-Rb (FIG. 9). After a 30 minute incubation, the cells were harvested in a protein extraction buffer (Zhao, et al., 1997, PNAS). The signaling of leptin in the cells, measured by its ability to stimulate tyrosine phosphorylation on STAT3 in a western blot assay, was evaluated.
Using a design similar to the in vitro experiment described in Example 5, the hexamer of the '388 patent (SEQ ID NO:3) was pre-incubated with human CRP (8 μg/ml) and human leptin (2 nM) for 1-hour. The resultant mixture was then added to the HEK-293 cells overexpressing the long form leptin receptors, OB-Rb (FIG. 12). After a 30 minute incubation, the cells were harvested in a protein extraction buffer. The signaling of human leptin in the cells, measured by its ability to stimulate tyrosine phosphorylation on STAT3 in a western blot assay, was evaluated.

ob/ob mice = experiment: Co-infusion of Peptide E with human CRP and leptin into ob/ob mice; format: in vivo, mouse; conditions: for restoration of leptin effect on body weight / restoration of leptin effect on food-intake: Pep-E 24 or 48 μg/day/mouse with human CRP 48 and leptin 12 μg/day/mouse
Method: FIG. 10. […] Infusion dosages for human CRP and leptin were 48 μg/day/mouse and 12 μg/day/mouse, respectively. The infusion rate for Pep-E (P) was 24 μg/day/mouse (medium dosage, abbreviated “m”) and 48 μg/day/mouse (high dosage, abbreviated “h”). Food-intake (FIGS. 10(A & C)) and body weight (FIGS. 10(B & D)) were monitored daily throughout the infusion. The arrows in A-D indicate the day of surgery. At the end of infusion, blood samples were collected for the measurement of blood-glucose, human CRP, and human leptin. The serum concentrations of human CRP and human leptin were 0.85±0.1 μg/ml and 18 ng±2 ng/ml, respectively. […] The glucose concentration from the mice infused with human CRP and leptin, but NOT with Pep-E was also shown.
In the in vivo experiment, the Peptide E polypeptide was co-infused through mini-osmotic pumps with human CRP and leptin into the ob/ob mice. Food-intake (24 hours) and body weight were followed during the infusion period (FIG. 10A-10D).

[1] = system: leptin-induced tyrosine phosphorylation of STAT3; experiment: Leptin-induced STAT3 tyrosine phosphorylation in HEK293 cells expressing OB-Rb (western blot), human leptin; format: cell-based; conditions: human leptin 2 nM, protein pre-incubated with leptin, HEK293 OB-Rb cells
Method: (§1) 2. Signaling Studies: A HEK293 cell line stably expressing the human long-form receptor, OB-Rb (M. Friedman-Einat et al., 2003, Regul. Pept. 111, 77) was serum starved for 2-h before addition of leptin and CRP. Leptin (SEQ ID NO:4), in the presence or absence of C-reactive proteins, was pre-incubated in μ-MEM for 30 minutes at 37° C. before applied to the cells. After a 30-incubation with leptin (SEQ ID NO:4), the cells were harvested in a previously described protein lysis buffer. A. Z. Zhao et al., 1997, Proc. Natl. Acad. Sci. U.S.A. 94, 322. The protein extract was subjected to a western blot assay with an anti-phospho-STAT3 specific antibody (Cell Signaling, Beverly, Mass.). For studies involving the primary hypothalamic neurons, the rat hypothalamus was surgically isolated right after euthanasia, and immediately placed in the DMEM for incubation with leptin in the presence or absence of CRP.
(§2) To determine if the interaction between CRP and leptin influences cellular actions of leptin, we assessed the ability of leptin to stimulate tyrosine phosphorylation of STAT3 and PI3-kinase activity in the presence of CRP in vitro.

mouse leptin = mouse leptin (Mus musculus, UniProt P41160); experiment: Immunoprecipitation of rat CRP with mouse leptin; format: binding; conditions: leptin and CRP mixture and rat serum
Method: Direct binding of […] and leptin in an immunoprecipitation assay was determined. Rat CRP was purified from fresh rat serum to >95% employing a previously established affinity-purification protocol. J. Tseng et al., 1988, Mol. Immunol. 25, 679. This purity is very similar to the human CRP preparation obtained from a commercial source (CHEMICON International). The purified human- and rat-CRP proteins were pre-mixed with recombinant human and mouse leptin, respectively, before addition of specific antibodies against human- and mouse-leptin. The concentrations of CRP and leptin in the precipitation reaction were all within the physiological ranges (M. B. Schulze et al., 2004, Diabetes Care 27, 889; T. Kazumi et al., 2003, Metabolism 52, 1113).
In parallel experiments, recombinant leptin was also pre-mixed with human- or rat serum to allow for potential direct interactions prior to immunoprecipitation. The precipitation pellets obtained were subjected to western blot assays with specific anti-CRP antibodies. […] Because of the similarities between rat CRP and human CRP in the binding to leptin and of our main interest in the relevance to human obesity, focus was placed on potential functional effects of human CRP in the subsequent experiments.

[2] = system: mouse leptin-induced STAT3 activation; experiment: Leptin-induced STAT3 tyrosine phosphorylation in HEK293 cells expressing OB-Rb, mouse leptin; format: cell-based; conditions: murine leptin 2 nM
Method: as §1, §2

[3] = system: insulin-stimulated PI3-kinase; experiment: Insulin-stimulated PI3-kinase activity in differentiated 3T3-L1 adipocytes (specificity control); format: cell-based

mouse leptin, sequence (P41160 22-167): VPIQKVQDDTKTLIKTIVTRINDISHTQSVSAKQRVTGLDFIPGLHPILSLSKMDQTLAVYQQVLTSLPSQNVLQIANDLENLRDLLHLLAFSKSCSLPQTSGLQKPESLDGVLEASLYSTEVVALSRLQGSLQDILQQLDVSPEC

## NH2-S-C-H-L-P-W-COOH (H-SCHLPW-OH; listed as Homo sapiens) [SEQ ID NO:3, 6 amino acid polypeptide reported in U.S. Pat. No. 6,777,388 to Grasso, et al]
Human CRP
  restoration of leptin-stimulated STAT3 activation in the presence of human CRP: unable to block the negative effect of human CRP on the signaling capability of human leptin; also recorded: failed to restore leptin-stimulated STAT3 activation

## NH2—W—P—L—H—C—S—COOH (H-[dW][dP][dL][dH][dC][dS]-OH; SMILES CC(C)C[C@@H](NC(=O)[C@H]1CCCN1C(=O)[C@H](N)Cc1c[nH]c2ccccc12)C(=O)N[C@H](Cc1c[nH]cn1)C(=O)N[C@H](CS)C(=O)N[C@H](CO)C(=O)O; listed as Homo sapiens) [SEQ ID NO:5, D-form hex-peptide reported by Grasso, et al]
Human CRP
  restoration of leptin-stimulated STAT3 activation in the presence of human CRP: failed to restore leptin-stimulated STAT3 activation

## Peptide E: chemically synthesized polypeptide of 27 amino acids representing a segment of human leptin (SEQ ID NO:2) (LAFSKSCHLPWASGLETLDSLGGVLEA; listed as Homo sapiens)
ob/ob mice
  restoration of leptin effect on body weight: could restore both of these functions of human leptin
  restoration of leptin effect on food-intake: could restore both of these functions of human leptin
ob/ob mice; listed as Peptide-E
  restoration of leptin effect on body weight: restored the physiological effects of human leptin
  restoration of leptin effect on food-intake: restored the physiological effects of human leptin
ob/ob mice; end of infusion, high dosage of Pep-E 48 μg/day/mouse with human CRP and leptin
  restoration of leptin effect on blood glucose: could restore the beneficial effect of human leptin on blood glucose
Human CRP; Peptide-E by itself
  STAT phosphorylation by the peptide itself: did not induce any changes in STAT phosphorylation

## human serum amyloid P-component (SAP): human serum amyloid P-component, control protein [reference compound]
[1]
  effect on leptin-induced tyrosine phosphorylation of STAT3: did not significantly alter leptin-stimulated phosphorylation of STAT3

B1: rat CRP: rat C-reactive protein purified from fresh rat serum to >95% (protein)
chain: HEDMSKQAFVFPGVSATAYVSLEAESKKPLEAFTVCLYAHADVSRSFSIFSYATKTSFNEILLFWTRGQGFSIAVGGPEILFSASEIPEVPTHICATWESATGIVELWLDGKPRVRKSLQKGYIVGTNASIILGQEQDSYGGGFDANQSLVGDIGDVNMWDFVLSPEQINAVYVGRVFSPNVLNWRALKYETHGDVFIKPQLWPLTDCCES
Mouse leptin
  direct binding to mouse leptin (immunoprecipitation with anti mouse-leptin, anti-CRP western blot): could also bring down rat CRP
[2]
  effect on mouse leptin-induced STAT3 phosphorylation: attenuate the tyrosine-phosphorylation of STAT3; also recorded: higher concentrations of rat- than human-CRP are required to achieve the equivalent effects; also recorded: Attenuating effects
[3]
  effect on insulin-stimulated PI3-kinase activity: did not block insulin-stimulated PI3-kinase

From patent publication US7629315B2, “Compositions for blocking the inhibitory effect of human CRP on human leptin” (University of Pittsburgh of the Commonwealth System of …, priority 2005, dated 2009)
